In patent US20130090249A1 (CENTRE NATIONAL DE LA RECHERCHE SCIENTIFIQUE CNRS, published 2013):

Legend:
[1] = target: T1, Lingo-1-HA (human, UniProt Q96FE5 42-620); test: BRET competition in live HEK-293 cells; the competitor may take the place of either the RLuc or the YFP partner
T1 construct: also called Lingo-HA; HA-tagged whole Lingo-1 protein
T1 sequence: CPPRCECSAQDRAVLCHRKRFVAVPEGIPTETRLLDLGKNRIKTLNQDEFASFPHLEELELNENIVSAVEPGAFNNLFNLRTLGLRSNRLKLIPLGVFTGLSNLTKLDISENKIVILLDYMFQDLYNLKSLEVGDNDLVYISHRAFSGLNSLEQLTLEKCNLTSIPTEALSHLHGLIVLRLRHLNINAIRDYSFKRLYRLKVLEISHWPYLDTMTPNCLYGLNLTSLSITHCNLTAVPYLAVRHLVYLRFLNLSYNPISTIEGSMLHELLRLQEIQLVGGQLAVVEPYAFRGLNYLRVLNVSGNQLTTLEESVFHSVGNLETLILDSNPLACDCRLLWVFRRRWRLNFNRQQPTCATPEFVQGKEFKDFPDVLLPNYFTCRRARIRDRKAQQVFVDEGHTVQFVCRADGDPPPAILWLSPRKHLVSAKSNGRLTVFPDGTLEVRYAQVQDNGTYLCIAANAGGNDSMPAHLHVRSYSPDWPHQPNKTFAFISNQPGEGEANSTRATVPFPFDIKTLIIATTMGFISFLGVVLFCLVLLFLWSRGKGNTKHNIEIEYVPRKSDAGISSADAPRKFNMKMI
Method: (§1) HEK-293 cells were transfected with the Lingo-1-RLuc and Lingo-1-YFP fusion proteins (the donor/acceptor ratio remains constant) and increasing concentrations of the whole Lingo-1 protein (Lingo-1-HA, amino acids 1-620) or the dominant negative thereof (DN-HA, amino acids 1-577) tagged with HA. The BRET measurement was carried out 48 hours after the transfection on live cells.
(§2) The BRET signal obtained between the Lingo-1-RLuc and Lingo-1-YFP proteins is therefore specific and can be modulated. […] In addition, when increasing concentrations of HA-tagged Lingo-1 protein were added (Lingo-1-HA at 0, 200, 400, 800, 1600 and 2600 ng), the BRET signal decreased (FIG. 5b); thereby making it possible to plot inhibition curves.

[2] = target: T2, DN-Lingo-1-HA (human, UniProt Q96FE5 42-577); test: as above
T2 construct: Residues 1-577 are counted on the 620-amino-acid human Lingo-1 (NP-116197); Expressed in HEK-293 cells; also called DN-HA; HA-tagged dominant negative of Lingo-1
T2 sequence: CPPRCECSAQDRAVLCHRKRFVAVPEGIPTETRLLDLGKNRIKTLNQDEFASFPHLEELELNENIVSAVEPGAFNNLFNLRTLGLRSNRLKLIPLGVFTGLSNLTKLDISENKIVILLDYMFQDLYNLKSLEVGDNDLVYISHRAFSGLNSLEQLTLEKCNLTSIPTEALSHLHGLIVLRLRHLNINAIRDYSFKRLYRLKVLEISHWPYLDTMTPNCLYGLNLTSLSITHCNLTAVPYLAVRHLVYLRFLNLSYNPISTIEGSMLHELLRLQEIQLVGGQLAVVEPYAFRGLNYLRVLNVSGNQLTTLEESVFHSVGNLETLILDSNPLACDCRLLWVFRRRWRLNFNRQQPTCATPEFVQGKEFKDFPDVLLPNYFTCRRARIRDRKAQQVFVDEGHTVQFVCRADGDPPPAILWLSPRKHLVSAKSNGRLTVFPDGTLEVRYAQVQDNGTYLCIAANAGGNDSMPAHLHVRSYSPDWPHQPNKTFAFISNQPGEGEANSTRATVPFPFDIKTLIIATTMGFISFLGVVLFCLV
Method: as §1, §2

B1: Lingo-1-RLuc (other)
chain: CPPRCECSAQDRAVLCHRKRFVAVPEGIPTETRLLDLGKNRIKTLNQDEFASFPHLEELELNENIVSAVEPGAFNNLFNLRTLGLRSNRLKLIPLGVFTGLSNLTKLDISENKIVILLDYMFQDLYNLKSLEVGDNDLVYISHRAFSGLNSLEQLTLEKCNLTSIPTEALSHLHGLIVLRLRHLNINAIRDYSFKRLYRLKVLEISHWPYLDTMTPNCLYGLNLTSLSITHCNLTAVPYLAVRHLVYLRFLNLSYNPISTIEGSMLHELLRLQEIQLVGGQLAVVEPYAFRGLNYLRVLNVSGNQLTTLEESVFHSVGNLETLILDSNPLACDCRLLWVFRRRWRLNFNRQQPTCATPEFVQGKEFKDFPDVLLPNYFTCRRARIRDRKAQQVFVDEGHTVQFVCRADGDPPPAILWLSPRKHLVSAKSNGRLTVFPDGTLEVRYAQVQDNGTYLCIAANAGGNDSMPAHLHVRSYSPDWPHQPNKTFAFISNQPGEGEANSTRATVPFPFDIKTLIIATTMGFISFLGVVLFCLVLLFLWSRGKGNTKHNIEIEYVPRKSDAGISSADAPRKFNMKMISRDPPVATMTSKVYDPEQRKRMITGPQWWARCKQMNVLDSFINYYDSEKHAENAVIFLHGNAASSYLWRHVVPHIEPVARCIIPDLIGMGKSGKSGNGSYRLLDHYKYLTAWFELLNLPKKIIFVGHDWGACLAFHYSYEHQDKIKAIVHAESVVDVIESWDEWPDIEEDIALIKSEEGEKMVLENNFFVETMLPSKIMRKLEPEEFAAYLEPFKEKGEVRRPTLSWPREIPLVKGGKPDVVQIVRNYNAYLRASDDLPKMFIESDPGFFSNAIVEGAKKFPNTEFVKVKGLHFSQEDAPDEMGKYIKSFVERVLKNEQ
notes: also called hLingo-1-RLuc
B1: binds [1]; binds [2].
